Test results as given in paper PMC12090751 (Journal of Virology, 2025).

Columns and labels:
[1] = molecular target: HA1 F1 (aa 11-329) displayed on yeast as Aga2 fusion (Influenza A virus H5, Re8 vaccine …, UniProt Q9Q0U6, strain); experiment: immunostaining of cells or tissue; conditions: one partner purified
[2] = molecular target: HA1 fragment F7 (aa 50-271) displayed on yeast as Aga2 fusion (Influenza A virus H5, Re8 vaccine …, UniProt Q9Q0U6, strain); experiment: immunostaining of cells or tissue; conditions: one partner purified

B1: Nb10 with Twin-Strep-tag (VHH)
VHH: QVQLQESGGGSVQAGGSLRLSCSASEYTRSMAWFRQVPGKEREGVAAIDTGNGNTYYPTVDGRFIISRGNAKNSVDLEMNSLTPDDTAIYYCAATQGPLWPTLGTQFSTESYNYWGQGTLVTVSS
binding result [1]: binds | binding result [2]: binds
